Assay results taken from patent publication US20080112926A1 (PROTAFFIN BIOTECHNOLOGIE, published 2008).

Molecular target: the molecule itself
Assay: fluorescence anisotropy with bis-ANS in PBS, self-association (dimerisation), no GAG
Experimental: By recording the concentration dependent fluorescence anisotropy of the chemokine resulting from the extrinsic chromophore bisANS it was aimed to find out the dimerisation constant of the mutants. Measurements were performed in PBS starting with high concentrations (up to 4 μM protein) followed by stepwise dilution. For each data point, the anisotropy signal (r) recorded at 507 nm was averaged over 60 sec.
IL-8 oligomerisation has been reported to relevantly influence the proteins GAG binding properties. Set at monomeric concentration, IL-8 bound size defined oligosaccharides 1000-fold tighter than at dimeric concentration. Therefore, the oligomerisation properties of IL-8 mutants were investigated by fluorescence anisotropy. Since the IL-8 intrinsic fluorophore (Trp57) was not sensitive enough for all of the mutants, the extrinsic fluorophore bis-ANS was used for these measurements. […] The mutant with the highest koligo(koligo=460 nM), which therefore dimerised worst, was Δ6 F17RF21R E70RN71K. […] Also the impact of heparan sulphate addition was observed.

| Protein | koligo (oligomerisation constant) [nM] |
| --- | --- |
| IL-8 mutant Δ6 F17RF21R E70RN71K (ligand, Δ6 means the first 6 N-terminal amino acids are deleted) CQCIKTYSKPRHPKRIKELRVIESGPHCANTEIIVKLSDGRELCLDPKENWVQRVVEKFLKRARKS | 460 |
| IL-8 mutant Δ6 F17RF21R E70K (ligand, Δ6 means the first 6 N-terminal amino acids are deleted) CQCIKTYSKPRHPKRIKELRVIESGPHCANTEIIVKLSDGRELCLDPKENWVQRVVEKFLKRAKNS | 147 |
